One series deals with Candida albicans. Kind of series: Biofilm formation, crystal violet assay. The conditions noted are these: 24 hours of growth. The format is cell-based.
A further series concerns lactoperoxidase (LPO). Kind of series: Enzymatic colorimetric assay for lactoperoxidase (LPO) activity. In kind it is biochemical. The note with it: colorimetric peroxidase substrate. From the text: An enzymatic assay for lactoperoxidase (LPO) activity was developed utilizing a molecule which in the presence of peroxidase activity turns a blue color.
For series [1], the system named is Salivary bacteria (including Lactobacillus, Lactococcus, and Streptococcus mutans). Description: Salivary bacteria acid production, pH over time. The conditions noted are these: in the presence of sucrose, entire 6 hour testing period. In kind it is cell-based. Here is the method:
Salivary bacteria (including Lactobacillus, Lactococcus, and Streptococcus mutans) produce acid during growth. This acidification is strongly associated with tooth decay, particularly when it results in pH below 5.5, which is a clinically relevant threshold. A slurry of these bacteria were treated with sucrose to stimulate growth, as well as varying concentrations of API-E2 lactoferrin. Upon the addition of sucrose and API-E2 lactoferrin, the pH was adjusted to 7 through a titration and the change in pH was subsequently monitored over the next 6 hours.

This note sets out measurements from patent US20260000736A1, “PURIFIED LACTOFERRIN COMPOSITIONS AND METHODS OF USE” (Lactea Therapeutics LLC, priority 2023, published 2026).

B1: Lactea-Lf: bovine lactoferrin purified from raw untreated milk by cation exchange chromatography and filtration according to Example 1 (protein)
chain: APRKNVRWCTISQPEWFKCRRWQWRMKKLGAPSITCVRRAFALECIRAIAEKKADAVTLDGGMVFEAGRDPYKLRPVAAEIYGTKESPQTHYYAVAVVKKGSNFQLDQLQGRKSCHTGLGRSAGWVIPMGILRPYLSWTESLEPLQGAVAKFFSASCVPCIDRQAYPNLCQLCKGEGENQCACSSREPYFGYSGAFKCLQDGAGDVAFVKETTVFENLPEKADRDQYELLCLNNSRAPVDAFKECHLAQVPSHAVVARSVDGKEDLIWKLLSKAQEKFGKNKSRSFQLFGSPPGQRDLLFKDSALGFLRIPSKVDSALYLGSRYLTTLKNLRETAEEVKARYTRVVWCAVGPEEQKKCQQWSQQSGQNVTCATASTTDDCIVLVLKGEADALNLDGGYIYTAGKCGLVPVLAENRKTSKYSSLDCVLRPTEGYLAVAVVKKANEGLTWNSLKDKKSCHTAVDRTAGWNIPMGLIVNQTGSCAFDEFFSQSCAPGRDPKSRLCALCAGDDQGLDKCVPNSKEKYYGYTGAFRCLAEDVGDVAFVKNDTVWENTNGESTADWAKNLNREDFRLLCLDGTRKPVTEAQSCHLAVAPNHAVVSRSDRAAHVKQVLLHQQALFGKNGKNCPDKFCLFKSETKNLLFNDNTECLAKLGGRPTYEEYLGTEYVTAIANLKKCSTSPLLEACAFLTR
With B1, the “Inhibition of Biofilm Formation” value in the series on Candida albicans is reported as “Strong (Lf was deemed to have a strong activity if biofilms were eliminated or significantly reduced to less than 90% less than no treatment at concentrations of 10 mg/mL or less after 24 hours of growth)”. Besides, in the series on lactoperoxidase (LPO), the “LPO enzymatic activity (blue color reaction)” value is listed as “neither detected by M/S or by the enzymatic assay”. Besides, the “pH of salivary bacteria slurry” value in series [1] (1 mg/mL) and in series [1] (10 mg/mL) was “above 5.5” each time.
